Read-outs that look alike come from different tables or passages of the source.
T1: Pfs230 D1D2 (aa 587–889) (Plasmodium falciparum, UniProt P68874 587-889)
T1 chain: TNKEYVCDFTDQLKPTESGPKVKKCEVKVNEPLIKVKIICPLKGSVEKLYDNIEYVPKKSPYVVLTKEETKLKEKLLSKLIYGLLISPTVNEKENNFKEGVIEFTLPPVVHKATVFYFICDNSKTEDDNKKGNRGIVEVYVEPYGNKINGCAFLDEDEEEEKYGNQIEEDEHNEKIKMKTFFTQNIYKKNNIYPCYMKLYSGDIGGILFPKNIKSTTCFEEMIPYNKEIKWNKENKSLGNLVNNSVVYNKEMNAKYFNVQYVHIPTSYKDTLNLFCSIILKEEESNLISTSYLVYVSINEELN

T2: Pfs230 Pro-D1D2 (aa 532–889) (Plasmodium falciparum, UniProt P68874 532-889)
T2 chain: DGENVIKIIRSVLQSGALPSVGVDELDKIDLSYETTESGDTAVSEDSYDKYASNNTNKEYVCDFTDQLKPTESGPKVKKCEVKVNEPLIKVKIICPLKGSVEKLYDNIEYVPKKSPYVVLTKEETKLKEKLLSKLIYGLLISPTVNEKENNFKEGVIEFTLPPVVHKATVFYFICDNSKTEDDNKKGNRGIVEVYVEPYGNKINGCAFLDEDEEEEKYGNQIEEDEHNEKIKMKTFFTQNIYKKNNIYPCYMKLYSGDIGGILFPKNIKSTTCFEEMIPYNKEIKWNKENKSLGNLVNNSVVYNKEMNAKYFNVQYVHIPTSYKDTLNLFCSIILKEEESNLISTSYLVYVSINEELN

T3: Pfs230 D1 (aa 587–731) (Plasmodium falciparum, UniProt P68874 587-731)
T3 chain: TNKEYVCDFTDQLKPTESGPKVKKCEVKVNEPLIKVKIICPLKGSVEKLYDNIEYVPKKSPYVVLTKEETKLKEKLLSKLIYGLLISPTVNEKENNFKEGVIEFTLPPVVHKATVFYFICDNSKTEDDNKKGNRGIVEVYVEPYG


What was measured:
Pfs230 D1D2 (aa 587–889) [1] = molecular target: T1, Pfs230 D1D2 (aa 587–889); test: BLI
[2] = molecular target: T2, Pfs230 Pro-D1D2 (aa 532–889); test: BLI
Pfs230 D1D2 (aa 587–889) [3] = molecular target: T1, Pfs230 D1D2 (aa 587–889); test: BLI; representative curve
Pfs230 D1 (aa 587–731) [4] = molecular target: T3, Pfs230 D1 (aa 587–731); test: BLI
Pfs230 D1D2 (aa 587–889) [5] = molecular target: T1, Pfs230 D1D2 (aa 587–889); test: BLI
Pfs230 D1 (aa 587–731) [6] = molecular target: T3, Pfs230 D1 (aa 587–731); test: BLI; representative curve
Pfs230 D1D2 (aa 587–889) [7] = molecular target: T1, Pfs230 D1D2 (aa 587–889); test: BLI; representative curve
Pfs230 D1 (aa 587–731) [8] = molecular target: T3, Pfs230 D1 (aa 587–731); test: BLI
Pfs230 D1D2 (aa 587–889) [9] = molecular target: T1, Pfs230 D1D2 (aa 587–889); test: BLI
[10] = molecular target: T2, Pfs230 Pro-D1D2 (aa 532–889); test: BLI; representative curve; only three curves fitted
[11] = molecular target: T2, Pfs230 Pro-D1D2 (aa 532–889); test: BLI; only three curves fitted

Binder	koff (Pfs230 D1D2 (aa 587–889) [1])	koff [2]	Kd (Pfs230 D1D2 (aa 587–889) [3])	Kd (Pfs230 D1 (aa 587–731) [4])	Kd (Pfs230 D1D2 (aa 587–889) [5])	Kd (Pfs230 D1 (aa 587–731) [6])	Kd (Pfs230 D1D2 (aa 587–889) [7])	koff (Pfs230 D1 (aa 587–731) [8])	koff (Pfs230 D1D2 (aa 587–889) [9])	Kd [10]	koff [11]
F5-Fc (Fc fusion) QVQLQESGGGLVQPGGSLRLSCAASGFTLDRYAIGWFRQAPGKEREGVSCISSSDGSTYYADSVKGRFTISRDNAKNTVYLQMNSLKPEDTAVYYCARDHGPCTVLADILYDYGMDYWGKGTQVTVSS	0.000351 s⁻¹	0.000644 s⁻¹	0.66 nM								
nanobody F5 (VHH) VHH: QVQLQESGGGLVQPGGSLRLSCAASGFTLDRYAIGWFRQAPGKEREGVSCISSSDGSTYYADSVKGRFTISRDNAKNTVYLQMNSLKPEDTAVYYCARDHGPCTVLADILYDYGMDYWGKGTQVTVSS				0.81 nM	1.22 nM	1.01 nM	1.13 nM	0.000316 s⁻¹	0.000313 s⁻¹		
nanobody A10 (VHH) VHH: QVQLQESGGGLVQAGSSLRLSCAASGGTFSNYAMGWFRQAPGKEREFVAAIGWSGGTYYTDSVEGRFTISRDNAKNTVYLQMNSLKPEDTAVYYCAAKRSGSSWSERGYDYWGQGTQVTVSS				3.18 nM	5.87 nM	4.56 nM	5.5 nM	0.000788 s⁻¹	0.000805 s⁻¹		
nanobody D11 (VHH) VHH: QVQLQESGGGLVQAGSSLRLSCAASGRTFSSYAMGWFRQAPGKEREFVAAIGWSGGTYYTDSVEGRFTISRDNAENTVYLQMNSLKPEDTAVYYCAAKASGSSWSERGYDYWGQGTQVTVSS				8.31 nM	16.1 nM	10.8 nM	15.5 nM	0.00256 s⁻¹	0.00262 s⁻¹		
nanobody F10 (VHH) VHH: QVQLQESGGGLVQAGGSLRLSCAASGRTFSDYFMGWFRQAPGKEREFVAAVSWSGGSTYYADSVKGRFTISRDNAKNTVFLQMNSLKPEDTAVYYCAGGGSYYPMSPYDGMDYWGKGTQVTVSS				0.12 nM	0.45 nM	0.26 nM	0.4 nM	4.8e-05 s⁻¹	8.19e-05 s⁻¹		
nanobody D6 (VHH) VHH: QVQLQESGGGLVQAGDSLRLSCAASGRTFSSYFMGWFRQAPGKEREFVAAISWSGGSTYYADSVKGRFTISRDNVKNTVYLQMNSLEPEDAAVYYCAGGGSYYPMSPRNGMDYWGKGTQVTVSS				0.39 nM	0.63 nM	0.79 nM	0.51 nM	0.000158 s⁻¹	0.000108 s⁻¹		
F10-Fc (Fc fusion) QVQLQESGGGLVQAGGSLRLSCAASGRTFSDYFMGWFRQAPGKEREFVAAVSWSGGSTYYADSVKGRFTISRDNAKNTVFLQMNSLKPEDTAVYYCAGGGSYYPMSPYDGMDYWGKGTQVTVSS	3.99e-05 s⁻¹									446 nM	0.00171 s⁻¹
nanobody D1 (VHH) VHH: QVQLQESGGGLVQAGDSLRLSCTASGRTFSNHAMGWFRQAPGKEREIVAVIFGTGRNSWYVDSVKGRFTISRDNAKNTVALQMNRLKPEDTAVYYCASGRTWYSGSSMAEYDYWGQGTQVTVSS				0.14 nM		0.29 nM		3.72e-05 s⁻¹			
nanobody B4 (VHH) VHH: QVQLQESGGGLVQPGGSLRLSCAASGFTLDYYGIGWFRQAPGKEREGVSCISSSDGSTYYADSVKGRFTISRDNAKNTVYLQMNSLKPEDTAVYYCAADLTGIGCTTAQAMGVIGDFGDFGSWGQGTQVTVSS				1.71 nM	4.8 nM	2 nM	4.62 nM	0.00138 s⁻¹	0.00152 s⁻¹		
nanobody E11 (VHH) VHH: QVQLQESGGGLVQPGGSLRLSCAASGFTSDYYGIGWFRQAPGKEREGVACISSSDGSTYYADSVKGRSTISRDNAKNTVYLQMNSLKPEDTAVYYCAADLSGIGCTTAQAMDVIGDFGDFGSWGQGTQVTVSS				2.61 nM	2.54 nM	3.16 nM	2.4 nM	0.000539 s⁻¹	0.000733 s⁻¹		
nanobody G2 (VHH) VHH: QVQLQESGGGLVQAGGSLRLSCAASGRTFSNYFMGWFRQAPGKEREFVAAVSWSGGSTYYADSVKGRLTISRDNAKNTVYLQMNSLKPEDTAVYYCAAGERYFPMEPRRGYDYWGQGTQVTVSS				0.49 nM	1.11 nM	0.36 nM	1.07 nM	0.000179 s⁻¹	0.00016 s⁻¹		
nanobody G5 (VHH) VHH: QVQLQESGGGLVQAGGSLRLSCAASGRTFNDYAMYWFRQAPGKEREFVADITWSGSSTYYADSVKGRFTISRDNAKNTVFLQMNSLKPEDTALYYCAADSRYYGIGIGTPRYWGQGTQVTVSS				3.36 nM	9.09 nM	3.25 nM	8.18 nM	0.000635 s⁻¹	0.000579 s⁻¹		
nanobody A11 (VHH) VHH: QVQLQESGGGLVQPGESLRLSCAASGRTSSSYAMGWFRQAPGKEREFVASISWSGGSTYYADSVKGRFTLSRDNAKNTVYLQMNSLKPEDTAVYYCAADGIFYSDYPLSVDDFHSWGQGTQVTVSS				1.56 nM	1.43 nM	1.47 nM	1.25 nM	0.00039 s⁻¹	0.000152 s⁻¹		
nanobody E1 (VHH) VHH: QVQLQESGGGLVQPGGSLRLSCAASGRTFSSYFMGWFRQAPGKGRVFVASISWSGGSTYYADSVKGRFTISRDNAENTVYLQMNSLKPEDTAVYYCAAGTRATPLDWASGMDYWGKGTQVTVSS				0.75 nM	3.91 nM	0.43 nM	3.58 nM	0.00019 s⁻¹	0.000409 s⁻¹		
